Molecular target: Plasmodium lactate dehydrogenase (pLDH) (Plasmodium falciparum, UniProt Q27743 1-316)
Test: FRET fluorescence recovery from MoS2 nanosheets on printer paper; 1 uM pLDH; 100 nM aptamer, 25 ug/mL MoS2 dried on printer paper; no recovery on lens, coffee filter, Whatman or Advantec paper; Aptamer buffer 20 mM Tris-HCl pH 8, 50 mM NaCl, 5 mM KCl, 5 mM MgCl2; pLDH in water, other proteins in 1x PBS; readings over 30 min; temperature not stated
Conditions: protein: recombinant; chain copies: 4; label: 3' FAM

Chain of Plasmodium lactate dehydrogenase (pLDH) (Q27743 whole entry): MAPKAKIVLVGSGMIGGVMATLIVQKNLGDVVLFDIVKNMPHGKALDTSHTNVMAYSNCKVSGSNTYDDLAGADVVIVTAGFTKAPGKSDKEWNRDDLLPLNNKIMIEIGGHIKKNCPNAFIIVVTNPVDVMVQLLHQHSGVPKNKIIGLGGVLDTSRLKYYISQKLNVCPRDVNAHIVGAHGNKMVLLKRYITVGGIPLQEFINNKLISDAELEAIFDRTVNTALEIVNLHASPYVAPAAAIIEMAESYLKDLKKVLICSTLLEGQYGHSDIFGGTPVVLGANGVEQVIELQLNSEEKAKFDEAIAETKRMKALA

GTTCGATTGGATTGTGCCGGAAGTGCTGGCTCGAAC (ssDNA) [pLDH aptamer]: binds.

— publication PMC5727500, “Paper-based MoS2 nanosheet-mediated FRET aptasensor for rapid malaria diagnosis”
